Positions count from the first letter of the chain named. In names and notes the source's numbering stands.
B1: β-III-spectrin actin-binding domain, wild-type (domain or fragment)
chain: MSSTLSPTDFDSLEIQGQYSDINNRWDLPDSDWDNDSSSARLFERSRIKALADEREAVQKKTFTKWVNSHLARVTCRVGDLYSDLRDGRNLLRLLEVLSGEILPKPTKGRMRIHCLENVDKALQFLKEQKVHLENMGSHDIVDGNHRLTLGLVWTIILRFQIQDISVETEDNKEKKSAKDALLLWCQMKTAGYPNVNVHNFTTSWRDGLAFNAIVHKHRPDLLDFESLKKCNAHYNLQNAFNLAEKELGLTKLLDPEDVNVDQPDEKSIITYVATYYHYFSKMK
notes: Construct pE-SUMO-ABD WT; also called ABD WT; wild-type ABD; source: Rosetta 2 (DE3) E. coli, purified (Ni-NTA, tag cleaved with Ulp1, second Ni-NTA)
B2: β-III-spectrin actin-binding domain D255G (domain or fragment)
chain: B1 chain with D255G
notes: mutation found in a patient; also called D255G ABD; source: Rosetta 2 (DE3) E. coli, purified (Ni-NTA, tag cleaved with Ulp1, second Ni-NTA)
B3: β-III-spectrin actin-binding domain F160C (domain or fragment)
chain: B1 chain with F160C
notes: mutation found in a patient; The methods paragraph prints F16C, everywhere else F160C; also called F160C ABD; F16C (as printed in the methods); source: Rosetta 2 (DE3) E. coli, purified (Ni-NTA, tag cleaved with Ulp1, second Ni-NTA)
B4: β-III-spectrin actin-binding domain H278R (domain or fragment)
chain: B1 chain with H278R
notes: mutation found in a patient; also called H278R ABD; source: Rosetta 2 (DE3) E. coli, purified (Ni-NTA, tag cleaved with Ulp1, second Ni-NTA)
B5: β-III-spectrin actin-binding domain K61E (domain or fragment)
chain: B1 chain with K61E
notes: mutation found in a patient; also called K61E ABD; source: Rosetta 2 (DE3) E. coli, purified (Ni-NTA, tag cleaved with Ulp1, second Ni-NTA)
B6: β-III-spectrin actin-binding domain K65E (domain or fragment)
chain: B1 chain with K65E
notes: mutation found in a patient; also called K65E ABD; source: Rosetta 2 (DE3) E. coli, purified (Ni-NTA, tag cleaved with Ulp1, second Ni-NTA)
B7: β-III-spectrin actin-binding domain L253P (domain or fragment)
chain: B1 chain with L253P
notes: Construct pE-SUMO-ABD-L253P; Mutation found in SCA5 patients; also called L253P ABD; source: Rosetta 2 (DE3) E. coli, purified (Ni-NTA, tag cleaved with Ulp1, second Ni-NTA)
B8: β-III-spectrin actin-binding domain T62I (domain or fragment)
chain: B1 chain with T62I
notes: mutation found in a patient; also called T62I ABD; source: Rosetta 2 (DE3) E. coli, purified (Ni-NTA, tag cleaved with Ulp1, second Ni-NTA)
B9: β-III-spectrin actin-binding domain T271I (domain or fragment)
chain: B1 chain with T271I
notes: mutation found in a patient; also called T271I ABD; source: Rosetta 2 (DE3) E. coli, purified (Ni-NTA, tag cleaved with Ulp1, second Ni-NTA)
B10: β-III-spectrin actin-binding domain V58M (domain or fragment)
chain: B1 chain with V58M
notes: mutation found in a patient; also called V58M ABD; source: Rosetta 2 (DE3) E. coli, purified (Ni-NTA, tag cleaved with Ulp1, second Ni-NTA)
B11: β-III-spectrin actin-binding domain Y272H (domain or fragment)
chain: B1 chain with Y272H
notes: mutation found in a patient and a parent; also called Y272H ABD; source: Rosetta 2 (DE3) E. coli, purified (Ni-NTA, tag cleaved with Ulp1, second Ni-NTA)

What follows are binders tested against T1, F-actin from rabbit skeletal muscle (rabbit, UniProt P68135 1-377) (assay: co-sedimentation; 2 µM ABD protein with increasing F-actin (3-120 µM) in F-buffer (10 mM Tris pH 7.5, 150 mM NaCl, 0.5 mM ATP, 2 mM MgCl2, 1 mM DTT); 30 min at room temperature; 50,000 RPM 30 min 25 °C; ABD left in supernatant quantified by SDS-PAGE and Coomassie; one-site fit with Bmax constrained to 1). Conditions: both partners purified.

How did the Kd turn out when B1 was run?
Its Kd is 55.2 µM.

Which Kd does the source give for B2 here?
Its Kd is 7.3 µM.

Which Kd does the source give for B3 here?
The Kd was under 1 µM.

Which Kd does the source give for B4 here?
The Kd was 6.7 µM.

How did the Kd turn out when B5 was run?
The Kd was under 1 µM.

For B6, which Kd is on record?
Its Kd is under 1 µM.

With B7 as the binder, how does the Kd read?
Its Kd is under 1 µM.

Which Kd does the source give for B8 here?
The Kd was 2.4 µM.

With B9 as the binder, how does the Kd read?
Its Kd is under 1 µM.

With B10 as the binder, how does the Kd read?
The Kd was 10.2 µM.

For B11, which Kd is on record?
Its Kd is 15.3 µM.

Molecular target: T1, F-actin from rabbit skeletal muscle
Assay: as above
Conditions: both partners purified
Remark: another data set of the same source

B11 was tested. Which Kd did it give?
Its Kd is 15.5 µM.

From paper PMC10453832, “Increased Actin Binding Is a Shared Molecular Consequence of Numerous SCA5 Mutations in β-III-Spectrin” (Cells, 2023)
